This is an account of results in patent US20240279318A1 (NANJING LEGEND BIOTECH, published 2024).

In assay [1] the target is T1, AFP158/HLA-A*02:01 complex (human).
T1 construct: biotinylated on the BSP by BirA for ELISA and panning; also called biotinylated AFP158/HLA-A*02:01 complex; Bio-AFP158
As to the kind of experiment: SPR, scFv-mIgG2aFc from supernatant captured, complex as analyte. A general note: Surface plasmon resonance follows binding to a sensor surface in real time, without labels.
Protocol: (§1) The binding affinity between selected antibodies and AFP158/HLA-A*02:01 complex was determined by surface plasmon resonance (SPR) on a BIAcore T200 instrument (GE Healthcare). The experiment was carried out as follows. The purified sdAb/scFv-mIgG2aFc protein were captured through mIgG2a-Fc onto the sensorchip. […] On-rate (kₐ) and off-rate (kd) were calculated based on association and dissociation curve, and were used to estimate the equilibrium dissociation constant (KD).
Humanized heavy chains and light chains were combined, and used to produce a series of humanized antibodies. These antibodies were synthesized as scFv-mIgG2aFc and transiently produced using HEK293 cells. The antibodies in the supernatant were subjected to SPR affinity assessment.

Assay [2] addresses T2, PTP4A1 peptide loaded T2 cells (human, UniProt P61769 21-119).
T2 construct: whole, on cells; also called PTP4A1-pulsed T2 cells
As to the kind of experiment: flow cytometry, peptide-loaded T2 cells. (In general: In flow cytometry, cells or beads pass a laser one at a time.)

The target of assay [3] is T3, BRCA2 peptide loaded T2 cells (human).
T3 construct: whole, on cells; also called BRCA2/T2
Kind of assay: flow cytometry, peptide-loaded T2 cells.

In assay [4] the target is T4, RCL1 peptide loaded T2 cells (human).
T4 construct: whole, on cells; also called RCL1/T2
Kind of assay: flow cytometry, peptide-loaded T2 cells.

Assay [5] has as its target T5, OR6C1 peptide loaded T2 cells (human, UniProt P61769 21-119).
T5 construct: whole, on cells; also called OR6C1/T2
Kind of assay: flow cytometry, peptide-loaded T2 cells.

The target in assay [6] is T6, RP1 peptide loaded T2 cells (human, UniProt P61769 21-119).
T6 construct: whole, on cells; also called RP1/T2
Kind of assay: flow cytometry, peptide-loaded T2 cells.

For assay [7], the target named is T7, ARNTL peptide loaded T2 cells (human, UniProt P61769 21-119).
T7 construct: whole, on cells; also called ARNTL/T2
Kind of assay: flow cytometry, peptide-loaded T2 cells.

Assay [8] addresses T8, OR51B6 peptide loaded T2 cells (human, UniProt P61769 21-119).
T8 construct: whole, on cells; also called OR51B6/T2
As to the kind of experiment: flow cytometry, peptide-loaded T2 cells.

Assay [9] deals with T9, CDC14A peptide loaded T2 cells (human, UniProt P61769 21-119).
T9 construct: whole, on cells; also called CDC14A/T2
Kind of assay: flow cytometry, peptide-loaded T2 cells.

For assay [10], the target named is T10, OR1I1 peptide loaded T2 cells (human, UniProt P61769 21-119).
T10 construct: whole, on cells; also called OR1I1/T2
Kind of assay: flow cytometry, peptide-loaded T2 cells.

The target of assay [11] is T11, ATG9A peptide loaded T2 cells (human, UniProt P61769 21-119).
T11 construct: whole, on cells; also called ATG9A/T2
As to the kind of experiment: flow cytometry, peptide-loaded T2 cells.

Assay [12] has as its target T12, ZNF566 peptide loaded T2 cells (human, UniProt P61769 21-119).
T12 construct: whole, on cells; also called ZNF566/T2
As to the kind of experiment: flow cytometry, peptide-loaded T2 cells.

The target in assay [13] is T13, NR2E1 peptide loaded T2 cells (human, UniProt P61769 21-119).
T13 construct: whole, on cells; also called NR2E1/T2
As to the kind of experiment: flow cytometry, peptide-loaded T2 cells.

Assay [14] concerns the target T1, AFP158/HLA-A*02:01 complex. Kind of assay: SPR, antibody captured via mIgG2a-Fc, complex as analyte.
Protocol: as §1
The target in assay [15] is T2, PTP4A1 peptide loaded T2 cells. Kind of assay: flow cytometry, 30 or 50 nM i647-labelled antibody.
Protocol: At the concentration of 30 or 50 nM, binding of 7 antibodies to T2 cells loaded with AFP158, 50 endogenous self-peptides and 12 homologous peptides were carried out using flow cytometry.

B1: AS170036 scFv-mIgG2aFc (Fc fusion, not shown: a dimerising Fc or GST)
chain: QLVLTQPSSVSGTPGQTVTISCAGTSSDVGSENYVSWYRQLPGTAPKLLIYQVNKRASGIADRFSGSKSGNTASMTISGLQSADEADYYCASYRSSDHNIVFGGGTHLTVLGGGGSGGGGSGGGGSAVQLVESGGGLVQPGGSLRLSCTASGFTFSSYAMSWVRQAPGKGLEWVSTINSGTGSPYYADSVKGRFTISRDNAKNTLYLQLNSLKTEDTAMYYCAKNFFDGSWFLGPPAMDYWGKGTLVTISS
notes: Camel scFv
Broadly, the Kd is the concentration at which binding is half-saturated. The koff is the rate constant with which the complex falls apart. As usually defined, the kon is the second-order rate constant of association. For B1, the Kd in [1] was found to be 450 nM; in [14] it was 250 nM. For the same molecule, the koff in [1] was determined as 0.19 s⁻¹; in [14], 0.06 s⁻¹. Also, the kon was 430000 M⁻¹ s⁻¹ in assay [1] and 240000 M⁻¹ s⁻¹ in assay [14]. Further, the binding result in assay [2], in assay [3], in assay [4], in [5], in assay [6] and in assay [7] was “no binding (tested: 30 or 50 nM)” each time. Moreover, the binding result in assay [8], in [9], in assay [10], in assay [11], in [12] and in assay [13] was “no binding (tested: 30 or 50 nM)” throughout.

B2: ET1402L1 scFv fused to a C-terminal mouse IgG2a Fc region (Fc fusion, not shown: a dimerising Fc or GST)
chain: QSVLTQPASVSGSPGQSITISCTGTSSDVGGYNYVSWYQQHPGKAPKLMIYDVNNRPSEVSNRFSGSKSGNTASLTISGLQAEDEADYYCSSYTTGSRAVFGGGTKLTVLGGGGSGGGGSGGGGSEVQLVQSGAEVKKPGESLTISCKASGYSFPNYWITWVRQMSGGGLEWMGRIDPGDSYTTYNPSFQGHVTISIDKSTNTAYLHWNSLKASDTAMYYCARYYVSLVDIWGQGTLVTVSS
notes: also called positive control antibody
Turning to B2, the binding result in assay [15] is recorded as “binds”.
